Key:
[1] = molecular target: BDCA-2 Ser49Cys variant extracellular domain fused to an N-terminal 3-heptad coiled-coil dimerization domain (human) (UniProt Q8WTT0); assay: non-reducing versus reducing SDS-PAGE (disulfide-linked dimer); bacterially expressed extracellular domain fusions eluted from a 5-mL desialylated egg glycopeptide column with EDTA, gels with or without 2-mercaptoethanol, Coomassie blue
[2] = molecular target: BDCA-2 Ser49Cys variant extracellular domain fused to an N-terminal 3-heptad coiled-coil dimerization domain (human) (UniProt Q8WTT0); assay: SEC; 1 x 30 cm Superdex S75, 10 mM Tris-Cl pH 7.8, 100 mM NaCl, 2.5 mM EDTA, 0.5 mL/min, room temperature; some fragments analysed at serial dilutions
[3] = molecular target: dectin-2 extracellular fragment beginning with His44 fused to an N-terminal 3-heptad coiled-coil dimerization domain (human) (UniProt Q6EIG7); assay: cross-linking; dectin-2 extracellular domain with dimerization domain in HEPES pH 7.8 buffers, bis(sulfosuccinimidyl) suberate or disuccinimidyl tartrate, serial dilutions, room temperature 30 min, reducing 17.5% SDS-PAGE, Coomassie blue
[4] = molecular target: dectin-2 extracellular fragment beginning with His44 fused to an N-terminal 3-heptad coiled-coil dimerization domain (human) (UniProt Q6EIG7); assay: SEC; 1 x 30 cm Superdex S75, 10 mM Tris-Cl pH 7.8, 100 mM NaCl, 2.5 mM EDTA, 0.5 mL/min, room temperature; some fragments analysed at serial dilutions
[5] = molecular target: wild type BDCA-2 extracellular domain (from His44) fused to an N-terminal 3-heptad coiled-coil dimerization domain (human) (UniProt Q8WTT0); assay: as above
[6] = molecular target: the molecule itself; assay: as above
[7] = molecular target: the molecule itself; assay: cross-linking; BDCA-2 purified from HEK cells in HEPES pH 7.8 buffers, pooled fractions reacted with various concentrations of bifunctional reagent for 30 min, reducing SDS-PAGE, western blot
[8] = molecular target: the molecule itself; assay: non-reducing versus reducing SDS-PAGE (disulfide-linked dimer); BDCA-2 purified from HEK cells by affinity chromatography (lysis with N-ethylmaleimide), gels with or without 2-mercaptoethanol, western blot with anti-BDCA-2 antiserum

## BDCA-2 Ser49Cys variant extracellular domain fused to an N-terminal 3-heptad coiled-coil dimerization domain (from UniProt Q8WTT0 44-213)
[1]
  stoichiometry N: 2
[2]
  stoichiometry N: 2

## dectin-2 extracellular fragment beginning with His44 fused to an N-terminal 3-heptad coiled-coil dimerization domain (from UniProt Q6EIG7 44-209)
[3]
  stoichiometry N: 2
[4]
  stoichiometry N: 2

## wild type BDCA-2 extracellular domain (from His44) fused to an N-terminal 3-heptad coiled-coil dimerization domain (from UniProt Q8WTT0 44-213)
[5]
  stoichiometry N: 2

B1: dectin-2 extracellular domain starting at Val40 (CRD plus full neck) (domain or fragment, human, UniProt Q6EIG7 40-209, looked up)
chain: VVTYHFTYGETGKRLSELHSYHSSLTCFSEGTKVPAWGCCPASWKSFGSSCYFISSEEKVWSKSEQNCVEMGAHLVVFNTEAEQNFIVQQLNESFSYFLGLSDPQGNNNWQWIDKTPYEKNVRFWHLGEPNHSAEQCASIVFWKPTGWGWNDVICETRRNSICEMNKIYL
notes: human dectin-2 (CLEC-6A) extracellular region starting at Val40; also called full extracellular domain of dectin-2; CRD plus neck fragment starting at residue Val40; source: E. coli BL21(DE3), inclusion bodies, renatured, purified on mannose-Sepharose
[6]
  stoichiometry N: 2

B2: blood dendritic cell antigen 2 (BDCA-2), full-length, wild type (receptor, human, UniProt Q8WTT0 1-213, looked up)
chain: MVPEEEPQDREKGLWWFQLKVWSMAVVSILLLSVCFTVSSVVPHNFMYSKTVKRLSKLREYQQYHPSLTCVMEGKDIEDWSCCPTPWTSFQSSCYFISTGMQSWTKSQKNCSVMGADLVVINTREEQDFIIQNLKRNSSYFLGLSDPGGRRHWQWVDQTPYNENVTFWHSGEPNNLDERCAIINFRSSEEWGWNDIHCHVPQKSICKMKKIYI
modifications: N-linked glycans (high mannose and complex)
notes: human BDCA-2, full-length protein expressed in HEK cells; Co-expressed with human FcRγ; no tag is mentioned; also called wild-type BDCA-2; source: HEK 293 cells, stably co-transfected with FcRγ; in lysate and purified from lysate on a desialylated egg-glycopeptide column
[7]
  stoichiometry N: 2

B3: BDCA-2 Ser49Cys variant, full-length (receptor, human, UniProt Q8WTT0 1-213, looked up)
chain: MVPEEEPQDREKGLWWFQLKVWSMAVVSILLLSVCFTVSSVVPHNFMYCKTVKRLSKLREYQQYHPSLTCVMEGKDIEDWSCCPTPWTSFQSSCYFISTGMQSWTKSQKNCSVMGADLVVINTREEQDFIIQNLKRNSSYFLGLSDPGGRRHWQWVDQTPYNENVTFWHSGEPNNLDERCAIINFRSSEEWGWNDIHCHVPQKSICKMKKIYI
modifications: interchain disulfide bond at Cys49; N-linked glycans (high mannose and complex)
notes: human BDCA-2, full-length construct with the naturally occurring change Ser49Cys (SNP found in a single individual); Co-expressed with human FcRγ; also called Ser49Cys form of BDCA-2; source: HEK 293 cells, stably co-transfected with FcRγ; in lysate and purified from lysate on a desialylated egg-glycopeptide column
[8]
  stoichiometry N: 2

From publication PMC11632364, “Interactions that define the arrangement of sugar-binding sites in BDCA-2 and dectin-2 dimers” (Glycobiology, 2024)
